Assay results from patent US10400249B2, “HPPD variants and methods of use” (priority 2014, dated 2019).
Positions count from the first letter of the chain named. In names and notes the source's numbering stands.

B1: K131: PfHPPD variant E335P, G336Y, K339A, A340Q (protein)
chain: MADLYENPMGLMGFEFIEFASPTPGTLEPIFEIMGFTKVATHRSKNVHLYRQGEINLILNNEPNSIASYFAAEHGPSVCGMAFRVKDSQKAYNRALELGAQPIHIDTGPMELNLPAIKGIGGAPLYLIDRFGEGSSIYDIDFVYLEGVERNPVGAGLKVIDHLTHNVYRGRMVYWANFYEKLFNFREARYFDIKGEYTGLTSKAMSAPDGMIRIPLNEESSKGAGQIEEFLMQFNGEGIQHVAFLTDDLVKTWDALKKIGMRFMTAPPDTYYEMLEGRLPDHGEPVDQLQARGILLDGSSVEGDKRLLLQIFSETLMGPVFFEFIQRKGDDGFGPYNFAQLFESIERDQVRRGVLTAD
modifications: HPPD variant - K131
notes: PfHPPD variant E335P, G336Y, K339A, A340Q
B2: K132: PfHPPD variant E335P, G336Y, A340E (protein)
chain: B1 chain with A339K, Q340E
modifications: HPPD variant - K132
notes: PfHPPD variant E335P, G336Y, A340E
B3: K258: PfHPPD variant P215N, E335P, G336F, A340E (protein)
chain: B1 chain with P215N, Y336F, A339K, Q340E
modifications: HPPD variant - K258
notes: PfHPPD variant P215N, E335P, G336F, A340E
B4: PfHPPD: wild-type Pseudomonas fluorescens HPPD, reference protein (protein)
chain: B1 chain with P335E, Y336G, A339K, Q340A
modifications: Pseudomonas Fluorescens
B5: K408: PfHPPD variant A188G, R189D, P215N, E335P, G336F, A340E (protein)
chain: B1 chain with A188G, R189D, P215N, Y336F, A339K, Q340E
modifications: HPPD variant - K408
notes: PfHPPD variant A188G, R189D, P215N, E335P, G336F, A340E
B6: K300: PfHPPD variant P215L, E335P, G336F, A340G (protein)
chain: B1 chain with P215L, Y336F, A339K, Q340G
modifications: HPPD variant - K300
notes: PfHPPD variant P215L, E335P, G336F, A340G
B7: K255: PfHPPD variant P215A, E335P, G336F, A340E (protein)
chain: B1 chain with P215A, Y336F, A339K, Q340E
modifications: HPPD variant - K255
notes: PfHPPD variant P215A, E335P, G336F, A340E
B8: K137: PfHPPD variant P215L, E335P, G336Y (protein)
chain: B1 chain with P215L, A339K, Q340A
modifications: HPPD variant - K137
notes: PfHPPD variant P215L, E335P, G336Y
B9: K407: PfHPPD variant A188G, R189E, P215N, E335P, G336F, A340E (protein)
chain: B1 chain with A188G, R189E, P215N, Y336F, A339K, Q340E
modifications: HPPD variant - K407
notes: PfHPPD variant A188G, R189E, P215N, E335P, G336F, A340E
B10: K405: PfHPPD variant A188G, R189C, P215A, E335P, G336F, A340E (protein)
chain: B1 chain with A188G, R189C, P215A, Y336F, A339K, Q340E
modifications: HPPD variant - K405
notes: PfHPPD variant A188G, R189C, P215A, E335P, G336F, A340E
B11: C959: reference PfHPPD mutant E335P (protein)
chain: B1 chain with Y336G, A339K, Q340A
modifications: HPPD variant - C959
B12: K203: PfHPPD variant P215L, E335P, G336Y, A340E (protein)
chain: B1 chain with P215L, A339K, Q340E
modifications: HPPD variant - K203
notes: PfHPPD variant P215L, E335P, G336Y, A340E
B13: K406: PfHPPD variant A188G, R189G, P215N, E335P, G336F, A340E (protein)
chain: B1 chain with A188G, R189G, P215N, Y336F, A339K, Q340E
modifications: HPPD variant - K406
notes: PfHPPD variant A188G, R189G, P215N, E335P, G336F, A340E
B14: K299: PfHPPD carrying only the P215L mutation, used as a second reference (protein)
chain: B1 chain with P215L, P335E, Y336G, A339K, Q340A
modifications: HPPD variant - K299

These molecules were tested on Pseudomonas fluorescens HPPD protein (assay: OD assay: HPPD activity and pI50 from HPP remaining after derivatisation with DNP). Conditions: HPPD enzyme activity of the clone.
Type: biochemical
Method: (§1) HPPD proteins were produced and purified as described in WO2011/076882. The activity of HPPD proteins in absence or presence of HPPD inhibitors was determined using either the so called OD assay or the HGD assay.
(§2) • a) The OD assay: The HPPD activity was determined colourimetrically by measuring the amount of HPP remaining in the assay mixture at the end of the incubation period after derivatisation of HPP with 2,4-dinitrophenylhydrazine (DNP) to form an amber-brown colored 2,4-dinitrophenylhydrazone under alkaline conditions. The assay was carried out at room temperature in Greiner F-bottom 96 well microplates. The assay mixture contained 50 mM Tris-HCl pH 7.8, 0.5 mM HPP, 10 mM ascorbate, 650 units of catalase and appropriate amounts of purified HPPD enzyme in a total assay volume of 100 μl. The reaction was started by the addition of enzyme. After an incubation time of 24 minutes, the reaction was stopped by the addition of 50 μl of a solution of 0.04% DNP dissolved in 3.8 N HCl. After a further 15-minute incubation period 100 μl of a 5 N KOH solution was added to the reaction mixture and the amount of unconsumed HPP was measured photometrically at 405 nm. Enzyme activity was calculated as the difference in E405 between assays lacking enzyme (negative control) and the enzyme containing assays (ΔE405=E405(negative control)−E405). Enzyme activity (nmol substrate consumed per min) was calculated from a calibration curve generated from HPP. pI50-values (the negative log value of the concentration of inhibitor necessary to inhibit 50% of the enzyme activity in molar concentration were determined from dose-response plots of HPPD activity versus inhibitor concentration tested (5.0×10^−6, 1.0×10^−5, 2.5×10^−5, 4.0×10^−5, 7.0×10^−5, 1.0×10^−4, 2.0×10^−4 and 5.0×10^−4M) using the 4 Parameter Logistic Model or Sigmoidal Dose-Response Model of the ID Business Solutions Ltd. XLfit software suite. The result “>5.6” means that the inhibition at the lowest inhibitor concentration tested was higher than 85% and the pI50-value could therefore not be precisely calculated within in the range of concentration of inhibitor tested. The result “<2.5” means that the inhibition at the highest inhibitor concentration tested was lower than 25% and the pI50-value could therefore not be precisely calculated within in the range of concentration of inhibitor tested. “n.d.” means not determined. • b) The HGD assay: With the HGD assay HPPD activity was measured at room temperature by adding appropriate amounts of HPPD to a solution of 200 mM Tris-HCl pH 7.6, 10 mM ascorbate, 20 μM FeSO4, 650 units of catalase, 8 μg HGA dioxygenase (HGA: homogentisate) and 600 μM HPP in a total volume of 1 ml. Initial reaction rates in the absence or presence of inhibitors were determined from the increase in absorbance at 318 nm due to the formation of maleylacetoacetate (ε318=11,900 M−1 cm-1). pI50-values (the negative log value of the concentration of inhibitor necessary to inhibit 50% of the enzyme activity in molar concentration were determined from dose-response plots of HPPD activity versus inhibitor concentration tested using the 4 Parameter Logistic Model or Sigmoidal Dose-Response Model of the ID Business Solutions Ltd. XLfit software suite. Due to the UV absorption of the HPPD inhibitors tested, inhibitor concentrations >100 μM could not be tested. The result “<4” means that the inhibition at 100 μM inhibitor concentration was lower than 25% and the pI50-value could therefore not be precisely calculated within in the range of concentration of inhibitor tested. “n.d.” means not determined. The HGD assay allowed to continuously follow HPPD-catalyzed HGA formation over time was therefore used to determine the inhibition type of the HPPD inhibitors tested. […] When in the presence of an inhibitor the HPPD activity was inhibited but the inhibition was found not to […] in a time-dependent manner, the inhibitor was called reversible (abbreviation “rev”). […]

Molecule | Activity DeltaE/24 min μg Protein
B1 | 0.50 DeltaE/24 min μg Protein
B2 | 0.50 DeltaE/24 min μg Protein
B3 | 0.15 DeltaE/24 min μg Protein
B4 | 0.76 DeltaE/24 min μg Protein
B5 | 0.56 DeltaE/24 min μg Protein
B6 | 0.01 DeltaE/24 min μg Protein
B7 | 0.09 DeltaE/24 min μg Protein
B8 | 0.12 DeltaE/24 min μg Protein
B9 | 0.41 DeltaE/24 min μg Protein
B10 | 0.16 DeltaE/24 min μg Protein
B11 | 0.09 DeltaE/24 min μg Protein
B12 | 0.08 DeltaE/24 min μg Protein
B13 | 0.52 DeltaE/24 min μg Protein
B14 | 0.17 DeltaE/24 min μg Protein

Same assay, conditions: inhibitor Cmpd. 2

Molecule | tolerance (pI50) Cmpd. 2
B3 | 5.4
B4 | >5.6
B5 | 5.7
B6 | 3.8
B7 | 5.0
B9 | 5.7
B10 | 4.9
B13 | 5.6
B14 | >5.6

Same assay, conditions: inhibitor diketonitrile (DKN), negative log of molar concentration

Molecule | tolerance (pI50) DKN
B1 | 3.3
B2 | 3.1
B3 | <2.5
B4 | >5.6
B5 | <2.5
B6 | <2.5
B7 | 3.0
B8 | 2.8
B9 | <2.5
B10 | 3.3
B11 | 5.5
B12 | <2.5
B13 | <2.5
B14 | 5.1

Same assay, conditions: inhibitor mesotrione (MST)

Molecule | tolerance (pI50) MST
B1 | 3.7
B2 | 3.7
B3 | 3.4
B4 | >5.6
B5 | 3.6
B6 | <2.5
B7 | 3.7
B8 | 3.4
B9 | 3.6
B10 | 3.7
B11 | >5.6
B12 | 3.0
B13 | 3.5
B14 | 5.5

Same assay, conditions: inhibitor tembotrione (TBT)

Molecule | tolerance (pI50) TBT
B1 | 4.8
B2 | 4.8
B3 | 4.4
B4 | >5.6
B5 | 4.6
B6 | 3.1
B7 | 4.5
B8 | 4.7
B9 | 4.6
B10 | 4.8
B12 | 3.9
B13 | 4.5
B14 | >5.6

The molecules below were run on Pseudomonas fluorescens HPPD protein (assay: HGD assay: HPPD activity coupled to HGA dioxygenase, pI50 and type of inhibition (time-course)). Conditions: not given.
Type: biochemical
Method: as §1, §2

Molecule | mechanism of inhibition by Cmpd. 2, time-course of inhibition
B1 | fully reversible inhibitor
B2 | fully reversible inhibitor
B3 | fully reversible inhibitor
B6 | fully reversible inhibitor
B7 | fully reversible inhibitor
B8 | fully reversible inhibitor
B12 | fully reversible inhibitor

Same assay, conditions: inhibitor Cmpd. 1; HGD assay

Molecule | tolerance (pI50) Cmpd. 1
B2 | 5.5

Same assay, conditions: inhibitor Cmpd. 2; HGD assay

Molecule | tolerance (pI50) Cmpd. 2
B1 | 6.2
B2 | 5.9
B6 | 4.3
B8 | 5.5
B12 | 5.3

Same assay, conditions: inhibitor Cmpd. 4; HGD assay

Molecule | tolerance (pI50) Cmpd. 4
B2 | 6.9
